Patent US20260055383

Legend:
Experiment in all cases: cell_activity
[1] = tested on: B2M right 12 bp TAL-ssSPB (synthetic construct); settings: paired with left 14 bp; replicate 7.46
[2] = tested on: B2M left 14 bp TAL-ssSPB (synthetic construct); settings: paired with right 11 bp; replicate 8.87
[3] = tested on: PBx (excision-only piggyBac transposase) (synthetic construct); settings: HEK293T, LINE1 integration 0
[4] = tested on: B2M left 10 bp TAL-ssSPB (synthetic construct); settings: paired with right 12 bp; replicate 5.48
[5] = tested on: B2M right 18 bp TAL-ssSPB (synthetic construct); settings: paired with left 14 bp; replicate 7.49
[6] = tested on: B2M right 16 bp TAL-ssSPB (13 bp spacing) (synthetic construct); settings: paired with left 14 bp; replicate 7.18
[7] = tested on: B2M left 9 bp TAL-ssSPB (synthetic construct); settings: paired with right 10 bp; replicate 4.54
[8] = tested on: B2M right 10 bp TAL-ssSPB (synthetic construct); settings: paired with left 9 bp; replicate 4.54
[9] = tested on: B2M right 16 bp TAL-ssSPB (14 bp spacing) (synthetic construct); settings: paired with left 14 bp; replicate 7.76
[10] = tested on: B2M right 9 bp TAL-ssSPB (synthetic construct); settings: paired with left 10 bp; replicate 5.72
[11] = tested on: B2M right 11 bp TAL-ssSPB (synthetic construct); settings: paired with left 14 bp; replicate 8.87
[12] = tested on: B2M right 17 bp TAL-ssSPB (13 bp spacing) (synthetic construct); settings: paired with left 14 bp; replicate 4.52
[13] = tested on: B2M right 20 bp TAL-ssSPB (synthetic construct); settings: paired with left 14 bp; replicate 5.61
[14] = tested on: B2M left 13 bp TAL-ssSPB (synthetic construct); settings: paired with right 12 bp; replicate 8.38
[15] = tested on: B2M right 15 bp TAL-ssSPB (synthetic construct); settings: paired with left 14 bp; replicate 4.79
[16] = tested on: B2M right 17 bp TAL-ssSPB (14 bp spacing) (synthetic construct); settings: paired with left 14 bp; replicate 5.14
[17] = tested on: TAL-ssSPB off-target (not specific for LINE1) (synthetic construct); settings: off-target control; excision 34.56
[18] = tested on: LINE1 R2.2 TAL-ssSPB K500R K500R (synthetic construct); settings: excision 33.92
[19] = tested on: LINE1 R2.2 TAL-ssSPB S301A S301A (synthetic construct); settings: excision 39.72
[20] = tested on: LINE1 R2.2 TAL-ssSPB M226F M226F (synthetic construct); settings: excision 45.14
[21] = tested on: B2M right 19 bp TAL-ssSPB (synthetic construct); settings: paired with left 14 bp; replicate 6.05

TCTGAGCTTCTAA (double strand) [B2M right 12 bp target]
activity (% B2M alleles edited) [1]: 6.8

TGAATCTGTGCTCTG (double strand) [B2M left 14 bp target]
activity (% B2M alleles edited) [2]: 7.63

CCCTAGAAAGATAGTCTGCGTAAAATTGACGCATG / CCCTAGAAAGATAATCATATTGTGACGTACGTTAAAGATAATCATGCGTAAAATTGACGCATG [WT transposon ITRs (35 bp LE / 63 bp RE)]
activity (% GFP positive cells) [3]: 98.8

TCTGTGCTCTG (double strand) [B2M left 10 bp target]
activity (% B2M alleles edited) [4]: 6.02

TTTGCATCTGAGCTTCTAA (double strand) [B2M right 18 bp target]
activity (% B2M alleles edited) [5]: 5.76

TGCATCTGAGCTTCTAA (double strand) [B2M right 16 bp target, 13 bp spacing]
activity (% B2M alleles edited) [6]: 6

TCTGTGCTCT (double strand) [B2M left 9 bp target]
activity (% B2M alleles edited) [7]: 5.38

TGAGCTTCTAA (double strand) [B2M right 10 bp target]
activity (% B2M alleles edited) [8]: 5.38

TTGCATCTGAGCTTCTA (double strand) [B2M right 16 bp target, 14 bp spacing]
activity (% B2M alleles edited) [9]: 6.39

TGAGCTTCTA (double strand) [B2M right 9 bp target]
activity (% B2M alleles edited) [10]: 5.73

TCTGAGCTTCTA (double strand) [B2M right 11 bp target]
activity (% B2M alleles edited) [11]: 7.63

TTGCATCTGAGCTTCTAA (double strand) [B2M right 17 bp target, 13 bp spacing]
activity (% B2M alleles edited) [12]: 5.66

TCTTTGCATCTGAGCTTCTAA (double strand) [B2M right 20 bp target]
activity (% B2M alleles edited) [13]: 4.65

TGAATCTGTGCTCT (double strand) [B2M left 13 bp target]
activity (% B2M alleles edited) [14]: 6.55

CCCTAGAAAGATAATCATGCGTAAAATTGACGCATG (double strand) [Symmetrical ITR 1bpSNP]
activity (% GFP positive cells) [3]: 91.3

TGCATCTGAGCTTCTA (double strand) [B2M right 15 bp target]
activity (% B2M alleles edited) [15]: 6.25

TTTGCATCTGAGCTTCTA (double strand) [B2M right 17 bp target, 14 bp spacing]
activity (% B2M alleles edited) [16]: 4.96

CCCTAGAAAGATAGTCTGCGTAAAATTGACGCATG (double strand) [Symmetrical ITR 0 bp]
activity (% GFP positive cells) [3]: 91

TTGTCTCTTTT (double strand) [LINE1 R2.2 right target]
activity (% mScarlet positive cells) [17]: 0.29 | activity (% mScarlet positive cells) [18]: 19.1 | activity (% mScarlet positive cells) [19]: 20.2 | activity (% mScarlet positive cells) [20]: 21.6

TCTTTGCATCTGAGCTTCTA (double strand) [B2M right 19 bp target]
activity (% B2M alleles edited) [21]: 5.45
